{
  "source": "IntAct's records for PubMed 28827714",
  "parents": {"B1": {"name": "Interleukin-17F (Homo sapiens), Q96PD4 (parent)", "chain": "MTVKTLHGPAMVKYLLLSILGLAFLSEAAARKIPKVGHTFFQKPESCPPVPGGSMKLDIGIINENQRVSMSRNIESRSTSPWNYTVTWDPNRYPSEVVQAQCRNLGCINAQGKEDISMNSVPIQQETLVVRRKHQGCSVSFQLEKVLVTVGCTCVTPVIHHVQ"}, "B2": {"name": "Interleukin-17F (Homo sapiens), Q96PD4 (parent)", "chain": "B1 chain", "partner": "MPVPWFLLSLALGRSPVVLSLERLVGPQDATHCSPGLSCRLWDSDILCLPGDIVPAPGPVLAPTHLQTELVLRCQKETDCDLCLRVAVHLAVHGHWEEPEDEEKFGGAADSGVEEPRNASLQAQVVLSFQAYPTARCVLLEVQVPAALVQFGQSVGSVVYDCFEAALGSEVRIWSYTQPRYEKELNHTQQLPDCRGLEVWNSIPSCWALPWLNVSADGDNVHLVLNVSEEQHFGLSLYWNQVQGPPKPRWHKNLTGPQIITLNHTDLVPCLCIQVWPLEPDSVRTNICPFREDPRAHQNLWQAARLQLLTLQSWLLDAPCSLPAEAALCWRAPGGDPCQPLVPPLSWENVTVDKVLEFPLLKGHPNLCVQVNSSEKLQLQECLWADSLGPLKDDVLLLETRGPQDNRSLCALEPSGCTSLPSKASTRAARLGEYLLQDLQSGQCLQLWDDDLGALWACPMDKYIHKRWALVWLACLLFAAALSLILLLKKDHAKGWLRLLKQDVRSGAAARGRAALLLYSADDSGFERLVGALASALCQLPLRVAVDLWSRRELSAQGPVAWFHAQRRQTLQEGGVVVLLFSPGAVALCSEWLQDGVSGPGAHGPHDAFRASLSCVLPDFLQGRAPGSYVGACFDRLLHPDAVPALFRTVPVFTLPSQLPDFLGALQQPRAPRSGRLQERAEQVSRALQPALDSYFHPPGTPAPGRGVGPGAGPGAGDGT"}},
  "data": [
    {"variants_of": "B1", "settings": "with IL17RA", "values": [
      {"variant": "R77A", "effect of a mutation on the interaction": "decreasing interaction strength"}
    ]},
    {"variants_of": "B2", "settings": "with IL17RC", "values": [
      {"variant": "R77A", "effect of a mutation on the interaction": "decreasing interaction strength"}
    ]}
  ]
}
